Assay results from paper PMC3496014 (Journal of structural biology, 2012).

Columns and labels:
His6-PfAtg3 = molecular target: T1, His6-PfAtg3 (P. falciparum 3D7, UniProt C0H519 1-313); assay: SEC + other: dynamic light scattering
T1 sequence (looked up): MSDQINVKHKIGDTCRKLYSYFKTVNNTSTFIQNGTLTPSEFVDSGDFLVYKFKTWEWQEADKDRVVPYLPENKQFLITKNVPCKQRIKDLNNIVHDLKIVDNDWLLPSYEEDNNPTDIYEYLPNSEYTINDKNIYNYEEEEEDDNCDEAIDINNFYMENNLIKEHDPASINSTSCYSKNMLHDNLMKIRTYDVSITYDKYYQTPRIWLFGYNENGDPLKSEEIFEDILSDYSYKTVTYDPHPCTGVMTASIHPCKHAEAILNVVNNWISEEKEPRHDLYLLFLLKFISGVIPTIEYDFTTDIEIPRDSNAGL

His6-PfAtg8 R27E = His6-PfAtg8 R27E (P. falciparum 3D7, UniProt Q8IJK2 1-124, R27E); assay: pull-down
His6-PfAtg8 K47E = His6-PfAtg8 K47E (P. falciparum 3D7, UniProt Q8IJK2 1-124, K47E); assay: pull-down
His6-PfAtg8 L49A = His6-PfAtg8 L49A (P. falciparum 3D7, UniProt Q8IJK2 1-124, L49A); assay: pull-down
[1] = molecular target: His6-PfAtg8 E44A/K45S/K46A (P. falciparum 3D7, UniProt Q8IJK2 1-124, E44A | K45S | K46A); assay: pull-down

B1: His6-PfAtg8 wild type (natural protein, P. falciparum 3D7, UniProt Q8IJK2 1-124, looked up)
chain: MPSLKDEVSFENRVAETHKIRSKYPNRIPVVCERANRSNLPIIEKKKFLVPMNMLVGEFKFILHQHINQSAYGSNMKLFRERTIYLFVNNIVPKTGLLMQDLYEMYKDEDGYLYMEYSCESCLG
- stoichiometry N (His6-PfAtg3): 1

B2: MBP-PfAtg3 (enzyme)
chain: MSDQINVKHKIGDTCRKLYSYFKTVNNTSTFIQNGTLTPSEFVDSGDFLVYKFKTWEWQEADKDRVVPYLPENKQFLITKNVPCKQRIKDLNNIVHDLKIVDNDWLLPSYEEDNNPTDIYEYLPNSEYTINDKNIYNYEEEEEDDNCDEAIDINNFYMENNLIKEHDPASINSTSCYSKNMLHDNLMKIRTYDVSITYDKYYQTPRIWLFGYNENGDPLKSEEIFEDILSDYSYKTVTYDPHPCTGVMTASIHPCKHAEAILNVVNNWISEEKEPRHDLYLLFLLKFISGVIPTIEYDFTTDIEIPRDSNAGL
- binding result (His6-PfAtg8 R27E): binds
- binding result (His6-PfAtg8 K47E): binds
- binding result (His6-PfAtg8 L49A): binds
- binding result [1]: binds
